Source: article PMC3436581

Biological target: Cu^2+-catalyzed oxidized PrP(23–231) (mild condition) (mouse) (UniProt P04925)
Assay: SEC

## Cu^2+-catalyzed oxidized PrP(23–231) (mild condition) (from UniProt P04925 23-231) (natural protein)
  percent of total protein in the tetramer band: < 5%
  stoichiometry N: 4
